Starred links: 1 amine or outer side, 2 acyl side, 3 side chain; linkers in the order of their positions; H or OH if unused. Positions of bridges follow the written chain, without caps; N, C: chain ends. Non-standard residues stand in square brackets, D forms with d. No end group written: not given here. X1 = 3‑(7-(3-acetamidophenyl)-1H-indol-3-yl)‑2‑aminopropanoic acid, CC(=O)Nc1cccc(-c2cccc3c(CC(N[*:1])C(=O)[*:2])c[nH]c23)c1; X3 = 4‑(2-(4-(2-amino-2-carboxyethyl)phenoxy)ethyl)‑4‑methylmorpholin‑4‑ium, C[N+]1(CCOc2ccc(CC(N[*:1])C(=O)[*:2])cc2)CCOCC1; Trp(7-Me) = Cc1cccc2c(C[C@H](N)C(=O)O)c[nH]c12; d(hLys(Me3)) = C[N+](C)(C)CCCCC[C@@H](N)C(=O)O; 3Pal = N[C@@H](Cc1cccnc1)C(=O)O; Lipidated = not defined here; Pen = CC(C)(S)[C@H](N)C(=O)O; lipid = not defined here; Thp = NC1(C(=O)O)CCOCC1; Sar = CNCC(=O)O Where only a bound is given, the exact number is not on record here.

The target in the assay is T1, interleukin-23 receptor (IL-23R), Q5VWK5.
T1 chain: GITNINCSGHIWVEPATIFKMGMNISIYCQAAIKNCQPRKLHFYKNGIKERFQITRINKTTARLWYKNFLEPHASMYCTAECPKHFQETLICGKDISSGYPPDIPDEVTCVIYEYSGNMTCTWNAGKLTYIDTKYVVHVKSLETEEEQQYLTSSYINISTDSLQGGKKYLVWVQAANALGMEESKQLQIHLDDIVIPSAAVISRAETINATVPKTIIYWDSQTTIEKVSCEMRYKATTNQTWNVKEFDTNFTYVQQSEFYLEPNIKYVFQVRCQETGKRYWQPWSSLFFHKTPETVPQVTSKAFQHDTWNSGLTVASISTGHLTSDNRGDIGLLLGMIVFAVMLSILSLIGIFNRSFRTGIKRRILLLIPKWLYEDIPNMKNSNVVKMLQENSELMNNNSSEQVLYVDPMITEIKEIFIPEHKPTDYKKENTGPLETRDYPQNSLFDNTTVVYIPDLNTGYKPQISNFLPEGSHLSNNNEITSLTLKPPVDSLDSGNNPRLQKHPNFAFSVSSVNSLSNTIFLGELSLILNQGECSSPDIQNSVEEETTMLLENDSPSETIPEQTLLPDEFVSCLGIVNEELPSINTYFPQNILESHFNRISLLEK
Briefly: cell-based or functional assay.

B1: SEQ ID NO: 181 (peptide)
peptide: [d(hLys(Me3))][Pen]NT[Trp(7-Me)]K(Ac)[Pen][2‑amino‑3‑(4-(2-aminoethoxy)phenyl)propanoic acid][2‑amino‑3‑(6-hydroxynaphthalen-2-yl)propanoic acid][Thp]K(Ac)N[3Pal][Sar]K(lipid)
modifications: disulfide 2-7 (inferred); ends not checked; also: K15 lipidated lysine, lipid not given here
The molecule B1 yielded a PBMC pSTAT3 IC50 below 1 nM.

B2: SEQ ID NO: 142 (peptide)
peptide: R[Pen]ET[Trp(7-Me)]K(Ac)[Pen][2‑amino‑3‑(4-(2-aminoethoxy)phenyl)propanoic acid][2‑amino‑3‑(6-hydroxynaphthalen-2-yl)propanoic acid][Thp]EN[3Pal][Sar]K
modifications: disulfide 2-7 (inferred); ends not checked; also: Lys15: lipidated lysine, lipid not given here
B2 yielded a PBMC pSTAT3 IC50 below 0.1 nM.

B3: SEQ ID NO: 144 (peptide)
peptide: [d(hLys(Me3))][Pen]NT[Trp(7-Me)]K(Ac)[Pen][2‑amino‑3‑(4-(2-aminoethoxy)phenyl)propanoic acid][2‑amino‑3‑(6-hydroxynaphthalen-2-yl)propanoic acid][Thp]EN[3Pal][Sar]
modifications: disulfide 2-7 (inferred); ends not checked
The molecule B3 registered a PBMC pSTAT3 IC50 below 1 nM.

B4: SEQ ID NO: 161 (peptide)
peptide: R[Pen]NT[X1]K(Ac)[Pen][X3][2‑amino‑3‑(6-hydroxynaphthalen-2-yl)propanoic acid][Thp]EN[3Pal][Sar]
modifications: disulfide 2-7 (inferred); ends not checked
The molecule B4 registered a PBMC pSTAT3 IC50 below 0.01 nM.

B5: SEQ ID NO: 150 (peptide)
peptide: R[Pen]KT[X1]K(Ac)[Pen][2‑amino‑3‑(4-(2-aminoethoxy)phenyl)propanoic acid][2‑amino‑3‑(6-hydroxynaphthalen-2-yl)propanoic acid][Thp]EN[3Pal][Sar]
modifications: disulfide 2-7 (inferred); ends not checked; also: Lys3: lipidated lysine, lipid not given here
Regarding B5, the PBMC pSTAT3 IC50 was below 1 nM.

B6: SEQ ID NO: 148 (peptide)
peptide: R[Pen]ET[Trp(7-Me)]K(Ac)[Pen][2‑amino‑3‑(4-(2-aminoethoxy)phenyl)propanoic acid][2‑amino‑3‑(6-hydroxynaphthalen-2-yl)propanoic acid][Thp]EN[3Pal][Sar]K
modifications: disulfide 2-7 (inferred); ends not checked; also: Lys15: lipidated lysine, lipid not given here
As for B6, the PBMC pSTAT3 IC50 was below 0.1 nM.

B7: SEQ ID NO: 165 (peptide)
peptide: [Pen]NT[Trp(7-Me)]K(Ac)[Pen][2‑amino‑3‑(4-(2-aminoethoxy)phenyl)propanoic acid][2‑amino‑3‑(6-hydroxynaphthalen-2-yl)propanoic acid][Thp]K(Ac)N[3Pal][Sar]K(lipid)
modifications: disulfide 1-6 (inferred); ends not checked; also: K14: lipidated lysine, lipid not given here
Regarding B7, the PBMC pSTAT3 IC50 is above 1 nM.

B8: SEQ ID NO: 147 (peptide)
peptide: R[Pen]ET[Trp(7-Me)]K(Ac)[Pen][2‑amino‑3‑(4-(2-aminoethoxy)phenyl)propanoic acid][2‑amino‑3‑(6-hydroxynaphthalen-2-yl)propanoic acid][Thp]EN[3Pal][Sar]K
modifications: disulfide 2-7 (inferred); ends not checked; also: Lys15: lipidated lysine, lipid not given here
B8 yielded a PBMC pSTAT3 IC50 below 1 nM.

B9: SEQ ID NO: 169 (peptide)
peptide: [Pen]ET[Trp(7-Me)]K(Ac)[Pen][2‑amino‑3‑(4-(2-aminoethoxy)phenyl)propanoic acid][2‑amino‑3‑(6-hydroxynaphthalen-2-yl)propanoic acid][Thp]K(Ac)N[3Pal][Sar]K(lipid)
modifications: disulfide 1-6 (inferred); ends not checked; also: K14 lipidated, lipid not given here
As for B9, the PBMC pSTAT3 IC50 is below 1 nM.

B10: SEQ ID NO: 164 (peptide)
peptide: K(lipid)[Pen]NT[Trp(7-Me)]K(Ac)[Pen][2‑amino‑3‑(4-(2-aminoethoxy)phenyl)propanoic acid][2‑amino‑3‑(6-hydroxynaphthalen-2-yl)propanoic acid][Thp]K(Ac)N[3Pal][Sar]
modifications: disulfide 2-7 (inferred); ends not checked; also: K1: lipidated lysine, lipid not given here
Regarding B10, the PBMC pSTAT3 IC50 was below 1 nM.

B11: SEQ ID NO: 156 (peptide)
peptide: R[Pen]NT[X1]K(Ac)[Pen][2‑amino‑3‑(4-(2-aminoethoxy)phenyl)propanoic acid][2‑amino‑3‑(6-hydroxynaphthalen-2-yl)propanoic acid][Thp]EN[3Pal][Sar]K
modifications: disulfide 2-7 (inferred); ends not checked; also: K15: lipidated lysine, lipid not given here
Turning to B11, the PBMC pSTAT3 IC50 was below 1 nM.

B12: SEQ ID NO: 182 (peptide)
peptide: [Pen]NT[Trp(7-Me)]K(Ac)[Pen][2‑amino‑3‑(4-(2-aminoethoxy)phenyl)propanoic acid][2‑amino‑3‑(6-hydroxynaphthalen-2-yl)propanoic acid][Thp]K(Ac)N[3Pal][Sar]K(lipid)
modifications: disulfide 1-6 (inferred); ends not checked; also: K14 lipidated lysine, lipid not given here
Molecule B12 came in with a PBMC pSTAT3 IC50 below 1 nM.

B13: SEQ ID NO: 145 (peptide)
peptide: [(R)‑2‑(2-(3-((5-carboxy-5-hydrazineylpentyl)amino)-3-oxopropoxy)ethoxy)‑N,N,N‑trimethylethan‑1‑aminium][Pen]NT[Trp(7-Me)]K(Ac)[Pen][2‑amino‑3‑(4-(2-aminoethoxy)phenyl)propanoic acid][2‑amino‑3‑(6-hydroxynaphthalen-2-yl)propanoic acid][Thp]EN[3Pal][Sar]
modifications: disulfide 2-7 (inferred); ends not checked
B13 returned a PBMC pSTAT3 IC50 below 0.1 nM.

B14: SEQ ID NO: 170 (peptide)
peptide: [Pen]ET[Trp(7-Me)]K(Ac)[Pen][2‑amino‑3‑(4-(2-aminoethoxy)phenyl)propanoic acid][2‑amino‑3‑(6-hydroxynaphthalen-2-yl)propanoic acid][Thp]K(Ac)N[3Pal][Sar]K(lipid)
modifications: disulfide 1-6 (inferred); ends not checked; also: K14 lipidated, lipid not given here
The molecule B14 came in with a PBMC pSTAT3 IC50 below 1 nM.

B15: SEQ ID NO: 166 (peptide)
peptide: [(R)‑3‑carboxy‑2‑(4-(((R)-5-carboxy-5-hydrazineylpentyl)amino)-4-oxobutanamido)‑N,N,N‑trimethylpropan‑1‑aminium][Pen]NT[Trp(7-Me)]K(Ac)[Pen][2‑amino‑3‑(4-(2-aminoethoxy)phenyl)propanoic acid][2‑amino‑3‑(6-hydroxynaphthalen-2-yl)propanoic acid][Thp]EN[3Pal][Sar]K(lipid)
modifications: disulfide 2-7 (inferred); ends not checked; also: K15: lipidated lysine, lipid not given here
Molecule B15 gave a PBMC pSTAT3 IC50 below 1 nM.

B16: SEQ ID NO: 151 (peptide)
peptide: R[Pen]NT[X1]K(Ac)[Pen][2‑amino‑3‑(4-(2-aminoethoxy)phenyl)propanoic acid][2‑amino‑3‑(6-hydroxynaphthalen-2-yl)propanoic acid][Thp]EN[3Pal][Sar]
modifications: disulfide 2-7 (inferred); ends not checked
Regarding B16, the PBMC pSTAT3 IC50 is below 1 nM.

B17: SEQ ID NO: 184 (peptide)
peptide: [d(hLys(Me3))][Pen]NT[Trp(7-Me)]K(Ac)[Pen][2‑amino‑3‑(4-(2-aminoethoxy)phenyl)propanoic acid][2‑amino‑3‑(6-hydroxynaphthalen-2-yl)propanoic acid][Thp]K(Lipidated)N[3Pal][Sar]
modifications: disulfide 2-7 (inferred); ends not checked; also: K11 lipidated lysine, lipid not given here
Molecule B17 came in with a PBMC pSTAT3 IC50 below 1 nM.

B18: SEQ ID NO: 153 (peptide)
peptide: [Pen]NT[X1]K(Ac)[Pen][2‑amino‑3‑(4-(2-aminoethoxy)phenyl)propanoic acid][2‑amino‑3‑(6-hydroxynaphthalen-2-yl)propanoic acid][Thp]KN[3Pal][Sar]
modifications: disulfide 1-6 (inferred); ends not checked; also: K10: lipidated lysine, lipid not given here
B18 showed a PBMC pSTAT3 IC50 below 0.1 nM.

The record behind these values is patent US20240279281A1, “Peptide Inhibitors of Interleukin-23 Receptor” (Janssen Pharmaceutica NV, priority 2023, published 2024).
